Test results as given in PMC3469567.
“And” between values parts separate entries of the source, which are not always exact repeats. Equal entries are not always repeated.

Key:
[1] = target: (N67D/)K113N-BS-RNase (bovine) (UniProt P00669); assay: SEC; thermally induced oligomerisation: 150-200 mg/ml in aqueous media (40% EtOH, with or without guanidine, and others), 45, 50 or 60°C for 1 h, then 0.2 M NaPi pH 6.7; Superdex 75
[2] = target: (N67D/)K113N-BS-RNase (bovine) (UniProt P00669); assay: as above; remark: listed apart in the source
[3] = target: (N67D/)K113N-BS-RNase (bovine) (UniProt P00669); assay: SEC; oligomers induced by lyophilisation from 40% acetic acid, re-dissolved in 0.2 or 0.4 M NaPi pH 6.7; Sephadex G-100 (0.1 M ammonium acetate pH 5.65) or Superdex 75 10/300 GL (0.2 or 0.4 M NaPi pH 6.7), room temperature; amounts as percent area of SEC peaks
[4] = target: DFDNB-cross-linked native dimer of N67D-BS-RNase (bovine) (UniProt P00669); assay: as above
[5] = target: T1, bovine pancreatic ribonuclease (RNase A) (bovine), P61823; assay: SEC; thermally induced oligomerisation: 150-200 mg/ml in aqueous media (40% EtOH, with or without guanidine, and others), 45, 50 or 60°C for 1 h, then 0.2 M NaPi pH 6.7; Superdex 75; conditions: remark: other sources report otherwise
T1 chain: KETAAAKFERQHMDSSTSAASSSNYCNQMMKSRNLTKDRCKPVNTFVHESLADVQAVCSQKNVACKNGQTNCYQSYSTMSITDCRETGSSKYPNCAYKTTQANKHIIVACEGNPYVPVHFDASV

[6] = target: T1, bovine pancreatic ribonuclease (RNase …); assay: SEC; oligomers induced by lyophilisation from 40% acetic acid, re-dissolved in 0.2 or 0.4 M NaPi pH 6.7; Sephadex G-100 (0.1 M ammonium acetate pH 5.65) or Superdex 75 10/300 GL (0.2 or 0.4 M NaPi pH 6.7), room temperature; amounts as percent area of SEC peaks; conditions: remark: other sources report otherwise

(N67D/)K113N-BS-RNase (from UniProt P00669 27-150) (enzyme)
stoichiometry N [1]: 4
stoichiometry N [2]: > 4
stoichiometry N [3]: 4
yield of dimer D (% of the total) (% of the total) [3]: 53.7
yield of hexamers H (% of the total) (% of the total) [3]: 10.9
yield of larger oligomers L.O. (% of the total) (% of the total) [3]: 9.9
yield of tetramer TT1/C (% of the total) (% of the total) [3]: 13.3
yield of tetramer TT2/N (% of the total) (% of the total) [3]: 12.2

DFDNB-cross-linked native dimer of N67D-BS-RNase (from UniProt P00669 27-150) (enzyme)
stoichiometry N [4]: 4

B1: bovine pancreatic ribonuclease (RNase A), P61823 27-150 (enzyme)
chain: KETAAAKFERQHMDSSTSAASSSNYCNQMMKSRNLTKDRCKPVNTFVHESLADVQAVCSQKNVACKNGQTNCYQSYSTMSITDCRETGSSKYPNCAYKTTQANKHIIVACEGNPYVPVHFDASV
stoichiometry N [5]: 2
stoichiometry N [6]: 2 and 3 and 4
